Laboratory results taken from patent US20190248877A1 (Hoffmann-La Roche, published 2019).

Experiments:
Assay in all cases: SPR ProteOn XPR36, biotinylated antigen on NLC chip, Fab as analyte, 25 C
[1] = target: GST huTNCfn5 mu A124 BC hu fn6 B (human fn5 and fn6, murine extra splice …, biotin on the C-terminal avi-tag (BirA, site-specific))
Method: (§1) Immobilization of antigens (ligand): Recombinant antigens were diluted with PBST (10 mM phosphate, 150 mM sodium chloride pH 7.4, 0.005% Tween 20) to 10 μg/ml, then injected at 30 μl/minute in vertical orientation. Injection of analytes: For ‘one-shot kinetics’ measurements, injection direction was changed to horizontal orientation, two-fold dilution series of purified Fab were injected simultaneously along separate channels 1-5, with association times of 200 s, and dissociation times of 240 s, respectively. Buffer (PBST) was injected along the sixth channel to provide an “in-line” blank for referencing. Association rate constants (kₒₙ) and dissociation rate constants (koff) were calculated using a simple one-to-one Langmuir binding model in ProteOn Manager v3.1 software by simultaneously fitting the association and dissociation sensorgrams. The equilibrium dissociation constant (KD) was calculated as the ratio koff/kₒₙ.

[2] = target: T1, huTNC A4 B (human, biotin on the C-terminal avi-tag (BirA, site-specific))
T1 chain: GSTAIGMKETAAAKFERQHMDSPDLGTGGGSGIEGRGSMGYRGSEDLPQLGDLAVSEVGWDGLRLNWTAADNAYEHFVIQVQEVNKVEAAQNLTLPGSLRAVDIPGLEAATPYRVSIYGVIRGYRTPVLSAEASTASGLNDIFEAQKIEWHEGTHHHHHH
Method: as §1

[3] = target: T2, GST huTNC fn5 A1234 BC fn6 B (human, UniProt P24821 984-1798, biotin on the C-terminal avi-tag (BirA, site-specific))
T2 construct: also called Human GST-fused TnC fn5 A1234 BC fn6
T2 sequence: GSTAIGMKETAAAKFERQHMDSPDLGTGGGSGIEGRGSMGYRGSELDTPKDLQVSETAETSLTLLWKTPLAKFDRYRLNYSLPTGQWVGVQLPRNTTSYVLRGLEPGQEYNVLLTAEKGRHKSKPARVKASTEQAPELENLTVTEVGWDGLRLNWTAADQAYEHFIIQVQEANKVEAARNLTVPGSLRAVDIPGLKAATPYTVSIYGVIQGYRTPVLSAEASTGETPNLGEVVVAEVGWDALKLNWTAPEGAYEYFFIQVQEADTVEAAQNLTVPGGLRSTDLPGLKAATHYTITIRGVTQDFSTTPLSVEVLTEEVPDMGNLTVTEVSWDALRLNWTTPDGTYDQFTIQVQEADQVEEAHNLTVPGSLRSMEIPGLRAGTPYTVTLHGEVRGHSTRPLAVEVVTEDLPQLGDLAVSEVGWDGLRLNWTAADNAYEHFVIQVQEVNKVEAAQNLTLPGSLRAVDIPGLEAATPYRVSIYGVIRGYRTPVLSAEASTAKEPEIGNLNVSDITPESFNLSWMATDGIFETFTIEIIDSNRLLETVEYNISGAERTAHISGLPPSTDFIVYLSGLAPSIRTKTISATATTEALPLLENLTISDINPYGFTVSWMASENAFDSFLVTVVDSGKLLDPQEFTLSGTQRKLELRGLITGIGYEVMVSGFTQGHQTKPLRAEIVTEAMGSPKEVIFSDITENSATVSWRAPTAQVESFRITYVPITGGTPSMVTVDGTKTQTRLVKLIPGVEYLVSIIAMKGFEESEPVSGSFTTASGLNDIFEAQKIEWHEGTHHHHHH
Method: as §1

[4] = target: T3, huTNC A1 B (human)
T3 chain: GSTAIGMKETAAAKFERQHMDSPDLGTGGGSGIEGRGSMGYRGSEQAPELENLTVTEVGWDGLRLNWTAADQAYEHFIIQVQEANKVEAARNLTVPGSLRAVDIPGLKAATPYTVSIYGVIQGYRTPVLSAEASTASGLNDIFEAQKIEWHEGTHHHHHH
Method: as §1

[5] = target: T4, GST huTNC fn5 A1234 fn6 B (human, biotin on the C-terminal avi-tag (BirA, site-specific))
T4 chain: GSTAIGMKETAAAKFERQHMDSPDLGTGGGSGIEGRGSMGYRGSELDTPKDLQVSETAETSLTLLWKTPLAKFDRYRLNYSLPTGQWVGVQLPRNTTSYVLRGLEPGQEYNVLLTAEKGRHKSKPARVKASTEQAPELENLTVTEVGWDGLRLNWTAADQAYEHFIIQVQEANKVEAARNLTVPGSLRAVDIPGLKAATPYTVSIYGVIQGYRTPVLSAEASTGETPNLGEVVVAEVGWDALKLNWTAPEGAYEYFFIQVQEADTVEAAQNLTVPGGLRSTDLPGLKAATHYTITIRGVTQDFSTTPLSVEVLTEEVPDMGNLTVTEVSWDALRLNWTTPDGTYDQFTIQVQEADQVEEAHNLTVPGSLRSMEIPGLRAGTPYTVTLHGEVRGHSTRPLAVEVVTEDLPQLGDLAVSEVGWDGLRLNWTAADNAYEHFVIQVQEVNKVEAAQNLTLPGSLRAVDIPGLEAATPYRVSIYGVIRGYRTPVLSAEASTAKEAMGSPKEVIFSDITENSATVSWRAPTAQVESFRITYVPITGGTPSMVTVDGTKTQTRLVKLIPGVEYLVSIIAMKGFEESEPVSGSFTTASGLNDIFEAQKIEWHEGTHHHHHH
Method: as §1

B1: anti-TnC clone 18D4 Fab fragment (Fab, V domains shown)
VH: QVQLVQSGAEVKKPGSSVKVSCKASGGTFSSYAISWVRQAPGQGLEWMGGIIPIFGTANYAQKFQGRVTITADKSTSTAYMELSSLRSEDTAVYYCAKGNFYGGLDYWGQGTTVTVSS
VL: DIQMTQSPSTLSASVGDRVTITCRASQSISSWLAWYQQKPGKAPKLLIYDASSLESGVPSRFSGSGSGTEFTLTISSLQPDDFATYYCQQNKKFPSGTFGQGTKVEIK
[1]
  Kd: 11.2 nM
[2]
  Kd: 2 nM
[3]
  Kd: 4 nM
[4]
  Kd: 5.6 nM
[5]
  Kd: 5 nM
